Test results reported in article PMC2425476 (Nucleic Acids Research, 2008).
Read-outs that look alike come from different tables or passages of the source.

B1: γ subunit of the E. coli clamp loader (γ complex) (natural protein)
chain: MSYQVLARKWRPQTFADVVGQEHVLTALANGLSLGRIHHAYLFSGTRGVGKTSIARLLAKGLNCETGITATPCGVCDNCREIEQGRFVDLIEIDAASRTKVEDTRDLLDNVQYAPARGRFKVYLIDEVHMLSRHSFNALLKTLEEPPEHVKFLLATTDPQKLPVTILSRCLQFHLKALDVEQIRHQLEHILNEEHIAHEPRALQLLARAAEGSLRDALSLTDQAIASGDGQVSTQAVSAMLGTLDDDQALSLVEAMVEANGERVMALINEAAARGIEWEALLVEMLGLLHRIAMVQLSPAALGNDMAAIELRMRELARTIPPTDIQLYYQTLLIGRKELPYAPDRRMGVEMTLLRALAFHPRMPLPEPEVPRQSFAPVAPTAVMTPTQVPPQPQSAPQQAPTVPLPETTSQVLAARQQLQRVQGATKAKKE
B2: 30 nt/55 nt p/tDNA (mixed)
DNA 1: TGAGCGTTTTTCCTGTTGCAATGGCTGGCGGTAATATTGTTCTGGATATTACCAG
DNA 2: CTGGTAATATCCAGAACAATATTACCGCCA
modifications: 5' amino linker on template (S2)

Legend:
[1] = target: the molecule itself
[2] = target: δW279A/R277A-γ complex;β clamp (Escherichia coli;Escherichia coli, UniProt P06710-2;P28630;P28631;P28905;P28632;P0A988 1-431;1-343;1-334;1-147;1-137;1-366, R277A;W279A|); assay: fluorescence anisotropy
[3] = target: δW279A/R283A-γ complex;β clamp (Escherichia coli;Escherichia coli, UniProt P06710-2;P28630;P28631;P28905;P28632;P0A988 1-431;1-343;1-334;1-147;1-137;1-366, W279A;R283A|); assay: fluorescence anisotropy
δW279Y-γ complex;β clamp [4] = target: T1, δW279Y-γ complex;β clamp (Escherichia coli;Escherichia coli, UniProt P06710-2;P28630;P28631;P28905;P28632;P0A988 1-431;1-343;1-334;1-147;1-137;1-366, W279Y|); assay: fluorescence anisotropy
δW279Y-γ complex;β clamp [5] = target: T1, δW279Y-γ complex;β clamp; assay: fluorescence anisotropy; remark: listed apart in the source
[6] = target: γ complex (clamp loader, γ3δδ'χψ), wild type;β clamp (Escherichia coli;Escherichia coli, UniProt P06710-2;P28630;P28631;P28905;P28632;P0A988 1-431;1-343;1-334;1-147;1-137;1-366, |); assay: fluorescence anisotropy
δW279A-γ complex;β clamp = δW279A-γ complex;β clamp (Escherichia coli;Escherichia coli, UniProt P06710-2;P28630;P28631;P28905;P28632;P0A988 1-431;1-343;1-334;1-147;1-137;1-366, W279A|); assay: fluorescence anisotropy

| Binder | binding result [1] | binding result [2] | binding result [3] | Kd (δW279Y-γ complex;β clamp [4]) [nM] | Kd (δW279Y-γ complex;β clamp [5]) [nM] | Kd [6] [nM] | Kd (δW279A-γ complex;β clamp) [nM] |
| --- | --- | --- | --- | --- | --- | --- | --- |
| B1 | binds | – | – | – | – | – | – |
| B2 | – | no binding | no binding | ~800 | 159 ± 15 | 60 ± 10 | 590 ± 80 |
